The Kd is the concentration at which binding is half-saturated.

B1: g5-D78-10_CLK19 (antibody, V domains shown)
VH: QVQLVQSGAEVKKPGASVKVSCKASGYTFTGYFIHWVRQAPGQGLEWMGWINPSYGAVNYARKFQGRVTMTRDTSISTAYMELQRLRSDDTAIYHCTIALAGYRWGFDYWGQGALVTVSS
VL: DIQMTQSPSSLSAFVGDRVTITCQARLDIRYSLNWYQQKPGKAPNLLIYDASNLETGVPSRFSGSGSGTNFTFTISTLQPEDIATYYCQQYETFGPGTKVHIK
B2: g5-D78-16_CLK19 (antibody, V domains shown)
VH: QVQLVQSGAEVKKPGASVKVSCKASGYTFTGYYIHWVRQAPGQGLEWMGWINPSYGAVNYARKFQGRVTMTRDTSISTAYMELQRLRSDDTAIYHCTIALAGYRWGFDYWGQGALVTVSS
VL: DIQMTQSPSSLSAFVGDRVTITCQARLDIRYSLNWYQQKPGKAPNLLIYDASNLETGVPSRFSGSGSGTNFTFTISTLQPEDIATYYCQQYETFGPGTKVHFK
B3: g5-D78-14_CLK19 (antibody, V domains shown)
VH: QVQLVQSGAEVKKPGASVKVSCKASGYTFTGYYIHWVRQAPGQGLEWMGWINPSYGAVNYARKFQGRVTMTRDTSITTAYMELQRLRSDDTAIYYCTIALAGYRWGFDYWGQGALVTVSS
VL: DIQMTQSPSSLSAFVGDRVTITCQARLDIRYSLNWYQQKPGKAPNLLIYDASNLETGVPSRFSGSGSGTNFTFTINTLQPEDIATYYCQQYETFGPGTKVDIK
B4: g5-D78-18_CLK19 (antibody, V domains shown)
VH: QVQLVQSGAEVKKPGASVKVSCKASGYTFTGYYIHWVRQAPGQGLEWMGWINPTYGAVNYARKFQGRVTMTRDTSISTAYMELQSLRSDDTAIYHCTIALAGYRWGFDYWGQGALVTVSS
VL: DIQMTQSPSSLSAFVGDRVTITCQARLDIRYSLNWYQQKPGKAPNLLIYDASNLETGVPSRFSGSGSGTNFTFTISTLQPEDIATYYCQQYETFGPGTKVDIK
B5: g5-D78-22_CLK19 (antibody, V domains shown)
VH: QVQLVQSGAEVKKPGASVKVSCKASGYTFTGYYIHWVRQAPGHGLEWLGWINPNYGAVNYARKFQGRVTLTRDTSISTAFMELQSLRSDDTAIYHCTISLAGYRWGFDYWGQGALVTVSS
VL: DIQMTQSPSSLSAFVGDRVTITCQARLDIRYSLNWYQQKPGKAPNLLIYDVSNLEIGVPSRFSGSGSGTNFTFTISTLQPEDIATYYCQQYETFGPGTKVDIK
B6: g5-D78-12_CLK19 (antibody, V domains shown)
VH: QVQLVQSGAEVKKPGASVKVSCKASGYTFTGYYIHWVRQAPGQGLEWMGWINPSYGAVNYARKFQGRVTMTRDTSISTAYMELQRLRSDDTAIYHCTIALAGYRWGFDYWGQGALVTVSS
VL: DIQMTQSPSSLSAFVGDRVTITCQARLDIRYSLNWYQQKPGKAPNLLIYDASNLETGVPSRFSGSGSGTNFTFTINTLQPEDIATYYCQQYETFGPGTKVDIK
B7: g5-D78-13_CLK19 (antibody, V domains shown)
VH: QVQLVQSGAEVKKPGASVKVSCKASGYIFTDYNMHWVRQAPGQGLEWMGWINPSFGGRNIVQKFQGRVTMTRDTSISTAYMELSGLRSDDTAVYFCTPVLAPFRWRFAYWGQGTLVTVSS
VL: DIQMTQSPSSLSASVGDRVTITCQASQDINYLNWYQQKPGKAPKLLIYDASNLETGVPSRFSGSGSGTDFTFTISSLQPEDIATYYCQQYAAFGPGTKVNIK
B8: g5-D78-20_CLK19 (antibody, V domains shown)
VH: QVQLVQSGAEVKKPGASVKVSCKASGYIFTDYNMHWVRQAPGQGLEWMAWINPRSGGRNIVQKFQGRVTMTRDTSISTAFMELSGLRSDDTAVYFCTPVLAPFRWRFAYWGQGTLVTVSS
VL: DIQMTQSPSSLSASVGDRVTITCQASQDINYLNWYQQKPGKAPKLLIYDASNLETGVPSRFSGSGSGTDFTFTISSLQPENIATYYCQQYAAFGPGTKVDIK
B9: g5-D78-15_CLK19 (antibody, V domains shown)
VH: QVQLVQSGAEVKKPGASVKVSCKASGYIFTDYNMHWVRQAPGQGLEWMGWINPSFGGRNIVQKFQGRVTMTRDTSISTAYMELSGLRSDDTAVYFCTPVLAPFRWPFVYWGQGTLVTVSS
VL: DIQMTQSPSSLSASVGDRVTITCQASQDINYLNWYQQKPGKAPKLLIYDASNLETGVPSRFSGSGSGTDFSFTISSLQPEDIATYYCQQYAAFGPGTKVDIK
B10: g28v2-D58-11_CLK09 (antibody, V domains shown)
VH: QVQLVQSGAEVKKPGASVKVSCKASGYTFTDYHIHWVRQAPGQGLEWMGWINPRGGGTNYAQKFQGRVTMTRDTSISTAYMDLSRLRSDDTAVYYCTPVLATFRWRFDYWGQGTLVTVSS
VL: DIQMTQSPSSLSASVGDRVTITCQASQDIRNYLNWYQQKPGKAPKLLIYDASNFETGVPSRFSGSGSGTDFTFTISSLQPEDIATYYCQQYEFFGGGTKVEIK
B11: g28v2-D58-2_CLK09 (antibody, V domains shown)
VH: QIQLVQSGAEVKKPGASVKVSCKASGYTFTDYFLHWVRQAPGQDLEWMGWINPTFGGTNYARNFQGRVTMTRDTSISTAYLELNRLRSDDTAVYYCATDLASNRWRFDYWGQGTLVTVSS
VL: DLQMTQSPSSLSASVGDRVTITCQASQDISNYLNWYQQKPGKAPKLLIYGASNLETGVPSRFSGSGSGTDFTFTISSLQPEDIAIYYCQQYEFFGGGTKVEIK
B12: g28v2-D58-5_CLK19 (antibody, V domains shown)
VH: QVQLVQSGAEVKKPGASVKVSCKASGYTFTGYFIHWVRQAPGQGLEWMGWINPNRGGTNYAQKFQGRVTMTRDTSTSTAYMDLSRLRSDDTAMYYCTVVLAAYRWPFAYWGQGTLVTVSS
VL: DIRVTQSPSSLSASVGDRVTITCQANQDIRNYLNWYQQKPGKAPKLLIYDVSKLETGVPSRFSGSGSGTDFTFTISSLQSEDIATYYCQQYETFGPGTKVDIK
B13: g28v2-D58-4_CLK09 (antibody, V domains shown)
VH: QVQLVQSGAEVKKPGASVKVSCKASGYTFIGYYIHWVRQAPGQGLEWMGWINPNRGGTNYPQKFQGRVTMTRDTSISTAYMELSRLRSDDTAVYYCALWFGEKKTFDIWGQGTMVTVSS
VL: DIQMTQSPSSLSASVGDRVTITCQASQGVSNYLNWFQQKPGKALKLLIYDVSNLETGVPSRFSGSGSGTDFTFTISSLQPEDIATYYCQQYEFFGGGTKVEIK
B14: g28v2-D58-6_CLK19 (antibody, V domains shown)
VH: QVQLVQSGAEVKKPGASVKVSCKASGYTFTGYYIHWFRQAPGQGLEWMGWMNPSYGGTNYAQKFQGRVTMTRDTSINTAYMELSRLRSDDTAVYYCTPVLAAYRWRFDYWGQGTLVTVSS
VL: DIQMTQSPSSLSASVGDRVTITCQANQAIRNYLNWYQQKPGKAPKLLIYDVSNLETGVPSRFSGSGSGTDFTFTISSLQSEDIATYYCQQYETFGPGTKVDIK
B15: g5-D78-2_CLK19 (antibody, V domains shown)
VH: QVQLVQSGAEVKKPGASVKVSCKTSGYTFTGYFLHWVRQAPGQGLEWMGWINPNSGGINYAQKFQGRVTMTRDTSINTAYMELSRLRSDDTAVYYCTPVLTNFRWPFAFWGQGTLVTVSS
VL: DIQMTQSPSSLSASVGDRVTITCQASQDIKNYLNWYQQKPGTAPKLLIYDTSNLETGVPSRFSGRGSGTDFTFTISSLQPEDIATYYCQQYETFGPGTKVDIK
B16: g5-D78-1_CLK19 (antibody, V domains shown)
VH: QVQLVQSGAEVKKPGASVKVSCKASGYTFTGYFLHWVRQAPGQGLEWMGWINPNRGGVNYAQKFQGRVTMTRDTSINTAYMELSRLRSDDSAVYYCTPVLTNFRWRFDFWGQGTLVTVSS
VL: DIQMTQSPSSLSASVGDRVTITCQASQDIKNYLNWYQQKPGTAPKLLIYDTSNLETGVPSRFSGSGSGTDFTFTISSLQPEDIATYYCQQYETFGPGTKVDIK
B17: g28v2-D58-7_CLK09 (antibody, V domains shown)
VH: QVQLVQSGAEVKKPGASVKVSCKASGYTFTGYYIHWVRQAPGQGLEWMGWMNPTGGGTNYAQKFQGRVTMTRDTSINTAYMELSRLRSDDTAVYYCTPVLADYRWRFDYWGQGTLVTVSS
VL: DIQMTQSPSSLSAFVGDRVTITCQASQGVSKYLNWYQQKPGKAPKLLIYDASNLETGVPSRFSGSGSGTDFTFTISSLQPEDIATYYCQQYEFFGGGTKVEIK
B18: g5-D78-19_CLK09 (antibody, V domains shown)
VH: QVQLVQSGAEVKKPGVSVKVSCKASGYTFNGYYMHWVRQAPGQGLEWMGWINPNNGGMNVARRFQDRVTLTRDTSFTTAYMELSRLRSDDSAVYYCARVGGLWFGEKWTFDIWGQGTMVTVSS
VL: DIQMTQSPSSLSASVGDRVTITCQTSQDISTFLNWYQQRPGKAPKLLIYGASNLATGVPSRFSGSGSGTDFTFTISSLQPEDIATYYCQQYEFFGGGTKVEIK
B19: g5-D78-21_CLK19 (antibody, V domains shown)
VH: QVQLVQSGAEVKKPGASVKVSCKTSGYTFTGYFLHWVRQAPGQGLEWMGWINPNSGGINYAQKFQGRVTMTRDTSINTAYMELSRLRSDDTAVYYCTPVLTNFRWPFAFWGQGTLVTVSS
VL: DIQMTQSPSSLSASVGDRVTITCQASQDIKNYLNWYQQKPGTAPKLLIYDTSNLETGVPSRFSGSGSGTDFTFTISSLQPEDIATYYCQQYETFGPGTKVDIK
B20: g28v2-D58-9_CLK09 (antibody, V domains shown)
VH: QVQLVQSGAEVKKPGASVKVSCKASGNTFTGNYIHWIRQAPGQGLEWMGWLNPNSGGTNYAQQLQGRVTMTRDTSISTAYMELRRLRSDDTAVYYCARVEGLWFGKEWAFDIWGQGTMVTVSS
VL: DIQMTQSPSSLSASVGDRVTITCQASQGVSNYLNWYQQKPGKALKLLIYDVSNLETGVPSRFSGSGSGTDFTFTISSLQPEDIATYYCQQYEFFGGGTKVEIK
B21: g28v2-D58-8_CLK09 (antibody, V domains shown)
VH: QVQLVQSGAEVKKPGASVKVSCKASGYTFTDYYLHWVRQAPGQGLEWMGWINPSTGGRNHARQFQGRVAMTRDTSISTAYMELSRLRSDDTAVYFCTPVLATFRWRFVYWGQGTLVTVSS
VL: DIQMTQSPSSLSASVGDRVTITCQASQGVSNYLNWYQQKPGKAPKLLIYDVSNLETGVPSRFSGSGSGTDFTFTISSLQPEDIATYYCQQYEFFGGGTKVEIK
B22: g28v2-D58-3_CLK09 (antibody, V domains shown)
VH: QVQLVQSGADVRKPGASVKVSCKASGYTFTDYYVHWVRQAPGQGLEWMGWINPNRGGTNYPQKFQGRVTMTRDTSISTAYMELSRLRSDDTAVYYCALWFGEKKTFDIWGQGTMVTVSS
VL: DIQMTQSPSSLSASVGDRVTITCQASQGVSNYLNWYQQKPGKAPKLLIYDVSNLETGVPSRFSGSGSGTDFTFTISSLQPEDIATYYCQQYEFFGGGTKVEIK

This assay concerns the target eOD-GT8 (monomeric ligand) (Human immunodeficiency virus 1, …).
B1 gave a Kd of 38 nM.

As to B2, the affinity, expressed as Kd, was 12 nM.

On to B3, for which the Kd came to 11 nM.

The molecule B4 came in with a Kd of 12 nM.

Molecule B5 had a Kd of 100 nM.

B6 came in with a Kd of 12 nM.

B7 showed a Kd of 4.9 nM.

As for B8, the Kd came to 3.4 nM.

B9 returned a Kd of 0.92 nM.

Molecule B10 returned a Kd of 3.65 nM.

The molecule B11 yielded a Kd of 1.55 nM.

B12: the Kd was determined as 39 nM.

On to B13, for which binding was characterised by a dissociation constant (Kd) of 3.48 nM.

As to B14, the affinity, expressed as Kd, was 1.06 nM.

The molecule B15 showed a Kd of 0.42 nM.

With B16, the Kd is 8 nM.

Turning to B17, binding was put at a Kd of 0.512 nM.

Molecule B18 yielded a Kd of 0.2 nM.

For B19, the Kd amounted to 0.29 nM.

On to B20, for which the Kd came out at 0.0455 nM.

With B21, the Kd worked out at 0.444 nM.

B22 registered a Kd of 1.38 nM.

These data come from PMC11488661 (Science immunology, 2024).
